{"source": "patent US20250215412A1", "about": "(NOVOZYMES A S, published 2025)", "experiment_in_all_cases": "cell-based or functional assay", "key": {"[1]": {"target": "T1, Chryseobacterium sp-62563 deamidase V190A (Chryseobacterium sp-62563)", "T1 chain": "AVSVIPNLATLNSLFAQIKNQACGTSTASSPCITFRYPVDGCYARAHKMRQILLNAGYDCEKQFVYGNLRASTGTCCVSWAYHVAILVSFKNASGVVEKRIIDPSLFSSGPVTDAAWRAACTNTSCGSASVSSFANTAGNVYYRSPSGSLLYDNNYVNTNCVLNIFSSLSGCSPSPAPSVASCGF"}, "[2]": {"target": "T2, Chryseobacterium sp-62563 deamidase V190G (Chryseobacterium sp-62563)", "T2 chain": "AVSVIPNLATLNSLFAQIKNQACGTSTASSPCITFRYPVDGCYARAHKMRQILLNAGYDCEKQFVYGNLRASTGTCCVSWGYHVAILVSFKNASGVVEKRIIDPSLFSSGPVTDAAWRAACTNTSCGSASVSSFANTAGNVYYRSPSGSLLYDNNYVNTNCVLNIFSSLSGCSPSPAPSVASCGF"}, "[3]": {"target": "T3, Chryseobacterium sp-62563 deamidase V190K (Chryseobacterium sp-62563)", "T3 chain": "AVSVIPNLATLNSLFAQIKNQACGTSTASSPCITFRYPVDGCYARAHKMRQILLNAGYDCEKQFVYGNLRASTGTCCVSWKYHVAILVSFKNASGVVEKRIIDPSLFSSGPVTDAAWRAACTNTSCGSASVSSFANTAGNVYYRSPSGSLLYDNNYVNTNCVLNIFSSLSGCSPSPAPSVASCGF"}, "[4]": {"target": "T4, Chryseobacterium sp-62563 deamidase V190M (Chryseobacterium sp-62563)", "T4 chain": "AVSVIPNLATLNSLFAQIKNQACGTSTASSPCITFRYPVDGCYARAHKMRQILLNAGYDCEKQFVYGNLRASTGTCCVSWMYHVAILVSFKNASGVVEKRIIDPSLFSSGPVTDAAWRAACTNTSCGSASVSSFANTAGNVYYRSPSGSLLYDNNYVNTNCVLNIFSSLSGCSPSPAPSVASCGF"}, "[5]": {"target": "T5, Chryseobacterium sp-62563 deamidase V190Q (Chryseobacterium sp-62563)", "T5 chain": "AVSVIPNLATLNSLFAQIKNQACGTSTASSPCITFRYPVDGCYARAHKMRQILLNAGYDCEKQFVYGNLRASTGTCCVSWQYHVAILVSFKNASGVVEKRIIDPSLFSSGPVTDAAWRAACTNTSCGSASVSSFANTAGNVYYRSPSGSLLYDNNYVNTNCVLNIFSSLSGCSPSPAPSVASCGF"}, "[6]": {"target": "T6, Chryseobacterium sp-62563 deamidase S254K (Chryseobacterium sp-62563)", "T6 chain": "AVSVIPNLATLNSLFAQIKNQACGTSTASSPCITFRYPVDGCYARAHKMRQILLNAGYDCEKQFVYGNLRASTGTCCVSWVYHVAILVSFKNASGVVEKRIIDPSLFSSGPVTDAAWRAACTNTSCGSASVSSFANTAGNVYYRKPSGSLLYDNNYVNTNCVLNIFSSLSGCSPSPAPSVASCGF"}, "[7]": {"target": "T7, Chryseobacterium sp-62563 deamidase S256D (Chryseobacterium sp-62563)", "T7 chain": "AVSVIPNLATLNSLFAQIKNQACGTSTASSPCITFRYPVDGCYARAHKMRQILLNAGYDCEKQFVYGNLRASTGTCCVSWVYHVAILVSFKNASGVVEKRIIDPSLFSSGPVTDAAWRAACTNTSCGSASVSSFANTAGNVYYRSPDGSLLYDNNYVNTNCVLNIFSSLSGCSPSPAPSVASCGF"}, "[8]": {"target": "T8, Chryseobacterium sp-62563 deamidase S258E (Chryseobacterium sp-62563)", "T8 chain": "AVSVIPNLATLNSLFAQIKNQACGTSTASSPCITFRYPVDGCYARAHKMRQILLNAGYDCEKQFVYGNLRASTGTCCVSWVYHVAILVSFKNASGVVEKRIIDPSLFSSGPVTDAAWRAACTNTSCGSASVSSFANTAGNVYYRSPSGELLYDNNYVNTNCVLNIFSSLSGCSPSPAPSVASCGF"}, "[9]": {"target": "T9, Chryseobacterium sp-62563 deamidase L259P (Chryseobacterium sp-62563)", "T9 chain": "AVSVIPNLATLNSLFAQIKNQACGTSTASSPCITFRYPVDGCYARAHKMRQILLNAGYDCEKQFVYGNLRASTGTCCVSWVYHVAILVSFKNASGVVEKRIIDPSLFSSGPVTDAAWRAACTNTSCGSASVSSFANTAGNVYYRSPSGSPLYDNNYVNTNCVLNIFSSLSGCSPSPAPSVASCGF"}, "[10]": {"target": "T10, Chryseobacterium sp-62563 deamidase L260E (Chryseobacterium sp-62563)", "T10 chain": "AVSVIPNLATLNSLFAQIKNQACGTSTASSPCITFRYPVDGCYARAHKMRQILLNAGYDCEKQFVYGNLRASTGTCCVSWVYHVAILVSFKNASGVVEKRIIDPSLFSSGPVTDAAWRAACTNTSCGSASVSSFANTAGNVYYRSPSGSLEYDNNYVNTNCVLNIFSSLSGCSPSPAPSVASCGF"}, "[11]": {"target": "T11, Chryseobacterium sp-62563 deamidase L260K (Chryseobacterium sp-62563)", "T11 chain": "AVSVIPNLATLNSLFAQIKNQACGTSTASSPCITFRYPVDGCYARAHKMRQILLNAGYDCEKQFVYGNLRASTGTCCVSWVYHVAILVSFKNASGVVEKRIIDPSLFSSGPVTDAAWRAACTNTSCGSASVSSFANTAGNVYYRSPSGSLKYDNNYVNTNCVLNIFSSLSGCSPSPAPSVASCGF"}, "[12]": {"target": "T12, Chryseobacterium sp-62563 deamidase T268I (Chryseobacterium sp-62563)", "T12 chain": "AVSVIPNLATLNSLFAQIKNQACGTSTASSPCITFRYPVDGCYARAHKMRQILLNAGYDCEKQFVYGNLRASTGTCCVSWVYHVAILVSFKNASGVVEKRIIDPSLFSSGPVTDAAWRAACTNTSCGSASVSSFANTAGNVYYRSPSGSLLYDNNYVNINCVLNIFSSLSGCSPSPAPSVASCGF"}}}
{"binder": "Chryseobacterium sp-62563 propeptide (first polypeptide, propeptide domain), wildtype (other) NQDPNLVAKESNETAMKDFGKTVPVGIEKEDGKFKISFMVTAQPYEIKDSKENAAYISMIKTAVENETPIHVFLKANTNEIAKVDKATDDDIRYFKSVFTKEVKEENRK", "values": [{"measurement": "NanoDSF thermal unfolding temperature", "setting": "[1]", "result": 68.6, "unit": "° C."}, {"measurement": "NanoDSF thermal unfolding temperature", "setting": "[2]", "result": 78, "unit": "° C."}, {"measurement": "NanoDSF thermal unfolding temperature", "setting": "[3]", "result": 76.4, "unit": "° C."}, {"measurement": "NanoDSF thermal unfolding temperature", "setting": "[4]", "result": 82, "unit": "° C."}, {"measurement": "NanoDSF thermal unfolding temperature", "setting": "[5]", "result": 75.8, "unit": "° C."}, {"measurement": "NanoDSF thermal unfolding temperature", "setting": "[6]", "result": 81.1, "unit": "° C."}, {"measurement": "NanoDSF thermal unfolding temperature", "setting": "[7]", "result": 81.5, "unit": "° C."}, {"measurement": "NanoDSF thermal unfolding temperature", "setting": "[8]", "result": 78.3, "unit": "° C."}, {"measurement": "NanoDSF thermal unfolding temperature", "setting": "[9]", "result": 80, "unit": "° C."}, {"measurement": "NanoDSF thermal unfolding temperature", "setting": "[10]", "result": 72.6, "unit": "° C."}, {"measurement": "NanoDSF thermal unfolding temperature", "setting": "[11]", "result": 75.5, "unit": "° C."}, {"measurement": "NanoDSF thermal unfolding temperature", "setting": "[12]", "result": 76.2, "unit": "° C."}]}
